Here are results for one molecule from patent US20040053365A1 (LUDWIG INSTITUTE FOR CANCER RESEARCH, published 2004).

In this experiment the target is T1, recombinant human GM-CSF (human, UniProt P04141 18-144).
T1 construct: also called rhGM-CSF
The experiment is described as follows: SPR, BIAcore 2000, 100 RU rhGM-CSF on chip, antibody 1-10 nM, Langmuir 1:1 model. In general terms: SPR reads the build-up and loss of mass on a sensor chip optically.

T1 sequence (P04141 18-144 limits assumed): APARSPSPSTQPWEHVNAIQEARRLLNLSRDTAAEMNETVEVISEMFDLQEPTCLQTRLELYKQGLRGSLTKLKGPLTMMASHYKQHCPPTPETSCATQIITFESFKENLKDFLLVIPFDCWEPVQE

B1: chimeric 19/2 anti-human GM-CSF monoclonal antibody (antibody, V domains shown)
VH: EVQLQQSGPELVKPGASVKISCKASGYTFTDYNIHWVKQSHGKSLDWIGYIAPYSGGTGYNQEFKNRATLTVDKSSSTAYMELRSLTSDDSAVYYCARRDRFPYFDYWGQGTTLRVSS
VL: DIVMIQSQKFVSTSVGDRVNITCKASQNVGSNVAWLQQKPGQSPKTLIYSASYRSGRVPDRFTGSGSGTDFILTITTVQSEDLAEYFCQQFNRSPLTFGSGTKLELKR
By kon is commonly meant the rate constant with which the complex forms. As for B1, the on-rate constant (kon) was determined as 510000 M⁻¹ s⁻¹.
